One experiment concerns the target T1, hLRIG1 Peptide 70 (human).
T1 construct: 20 amino acid peptide of the LRIG1 peptide library
T1 peptide: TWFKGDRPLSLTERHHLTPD
The experiment can be described thus: peptide ELISA of Example 2, as told in Example 3. The procedure:
(§1) To identify the epitopes to which LRIG1 antibodies with and without VISTA-LRIG1 blocking activity bound, a library of 20 amino acid peptides representing portions of LRIG1 was produced, and the ability to bind LRIG1 antibodies was evaluated by ELISA. At least 2 ug/ml of hLRIG1 peptide in 50 μl of PBS or 0.1 ug/ml of full-length human LRIG1 protein (R&D Systems) in 100 μl of PBS was added to the wells of a 96-well ELISA plate (Thermo Fisher, 44-2404-21). After incubating the plate at 4° C. overnight, the plate was washed three times with 300 μl of PBST per well. The plate was then blocked for an hour with 200 μl of 2% BSA in PBST per well at room temperature with gentle rocking. Thereafter, the 2% BSA in PBST was removed and 100 μl of 0.1 ug/ml of antibody in 2% BSA in PBST was added to the wells. The plate was incubated for an hour at room temperature with gentle rocking and then washed three times with 300 μl of PBST per well. Afterwards, 100 μl of anti-mouse IgG-HRP (1:4000) (Jackson ImmunoResearch) or anti-rat IgG HRP (1:4000) (Jackson ImmunoResearch) was added to the wells. The plate was incubated for 30 minutes at room temperature with gentle rocking and then washed three times with 300 μl of PBST per well. 100 μl of TMB substrate (Fisher Scientific, 34029) was then added to each well. The reaction was stopped with 50 μl of 1 M HCl (VWR) per well. The plate was read using a plate reader (Molecular Devices) at absorbance of 450 nm, and signal greater than 0.25 OD was considered evidence of peptide binding.
For orientation: An ELISA detects its analyte on a solid surface through an enzyme-linked reagent.

For another experiment, the target named is T2, hLRIG1 Peptide 71 (human).
T2 construct: 20 amino acid peptide of the LRIG1 peptide library
T2 peptide: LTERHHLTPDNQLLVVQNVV
In words: peptide ELISA of Example 2, as told in Example 3. On the procedure:
as §1

For experiment [1], the target named is T3, human LRIG1 extracellular domain fused to a linker-spaced 6-histidine tag, LRIG1-ECD-His (R&D systems, … (human, UniProt Q96JA1 35-794)).
T3 construct: Bought protein; also called human LRIG1-His; hLRIG1-His; not shown: linker-spaced 6-histidine tag
T3 sequence: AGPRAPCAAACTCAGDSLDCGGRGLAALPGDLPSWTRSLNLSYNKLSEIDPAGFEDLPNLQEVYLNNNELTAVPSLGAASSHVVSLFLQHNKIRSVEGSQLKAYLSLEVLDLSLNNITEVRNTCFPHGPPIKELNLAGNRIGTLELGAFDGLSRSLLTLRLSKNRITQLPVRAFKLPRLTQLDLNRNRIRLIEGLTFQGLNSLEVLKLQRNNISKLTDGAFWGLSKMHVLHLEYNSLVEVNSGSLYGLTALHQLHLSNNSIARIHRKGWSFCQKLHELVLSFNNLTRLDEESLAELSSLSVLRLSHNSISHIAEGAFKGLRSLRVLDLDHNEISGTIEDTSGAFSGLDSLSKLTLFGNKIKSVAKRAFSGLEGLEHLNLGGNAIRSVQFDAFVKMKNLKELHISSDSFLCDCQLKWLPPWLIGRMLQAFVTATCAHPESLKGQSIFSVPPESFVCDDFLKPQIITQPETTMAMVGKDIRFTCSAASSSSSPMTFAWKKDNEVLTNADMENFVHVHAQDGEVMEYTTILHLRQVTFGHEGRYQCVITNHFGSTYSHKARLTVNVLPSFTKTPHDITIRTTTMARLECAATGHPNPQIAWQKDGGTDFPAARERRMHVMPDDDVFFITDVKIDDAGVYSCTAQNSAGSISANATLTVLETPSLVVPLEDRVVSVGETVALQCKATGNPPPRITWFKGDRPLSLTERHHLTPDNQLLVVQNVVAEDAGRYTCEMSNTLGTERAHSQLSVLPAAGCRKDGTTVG
In words: LRIG1 ECD ELISA-positive hybridoma antibodies tested in blocking ELISA on plate-bound LRIG1-ECD-His. The procedure:
Positively scoring wells were evaluated for the ability to block association of LRIG1 and VISTA. To identify LRIG1-targeted antibodies with the ability to block the interaction of LRIG1 and VISTA, purified LRIG1 and VISTA proteins were incubated in the presence of LRIG1-immunization hybridoma supernatants described above, or without antibody, and protein interaction was evaluated by ELISA. Purified human LRIG1 extracellular domain fused to a HIS tag (R&D Systems) was diluted in phosphate buffered saline (PBS) (Corning) to a concentration of 3 μg/ml and 100 μl was added to each well of a 96-well ELISA plate (Thermo Fisher, 44-2404-21). After incubating the plate at 4° C. overnight, the plate was washed three times with 300 μl of PBS with 0.05% TWEEN (VWR) (PBST) per well. The plate was then blocked for an hour with 200 μl of 2% bovine serum albumin (BSA) (Sigma) in PBST per well at room temperature with gentle rocking. Thereafter, the 2% BSA in PBST was removed and 50 μl of hybridoma supernatant diluted to 3.3 ug/mL was added to the wells. The plate was incubated for 10 minutes at room temperature with gentle rocking. Afterwards, 100 ul of 50 nM oligomerized VISTA in 100 ul PBS buffer was added per well. VISTA oligomerization was performed by Klickmer formation. Briefly, 5 nM Klickmer (Immudex) was incubated with 200 nM hVISTA-Fc-Avi-Biotin in PBS and incubated for one hour. The plate was incubated for an hour at room temperature with gentle rocking. Thereafter, the plate was washed three times with 300 μl of PBST per well, and 100 μl of avidin-HRP (1:1000) (Jackson ImmunoResearch) was then added to each well and the plate was incubated at room temperature for 30 minutes with gentle rocking. Thereafter, the plate was washed three times with 300 μl of PBST per well. 100 μl of TMB substrate (Fisher Scientific, 34029) was then added to each well. The reaction was stopped with 50 μl of 1 M HCl (VWR) per well. The plate was read using a spectrophotometer (Molecular Devices) at absorbance of 450 nm. Percent blockade of LRIG1-VISTA interaction was calculated as the fraction of signal obtained in each experimental samples of the no antibody sample less background signal.

For another experiment, the target named is T4, hLRIG1 Peptide 69 (human).
T4 construct: 20 amino acid peptide of the LRIG1 peptide library
T4 peptide: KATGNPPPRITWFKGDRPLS
In words: peptide ELISA of Example 2, as told in Example 3. On the procedure:
as §1

B1: 802.5G6.2B8 (antibody, V domains shown)
VH: EVHLVESGGGLMKPGGSLKLSCAASGFTFSSYAMSWVRQTPEKRLEWVATISDGGSYTYYPDNVKGRFTISRDNAKNNLYLQMSRLKSEDTAMYYCSRAGSTVVNFGYWGQGTTLTVSS
VL: DIVMTQTPLSLPVSLGDQASISCRSSQNIAHSNGNTYLEWYLQKPGQSPQLLIYKVSNRFSGVPDRFSGSGSGTDFTLKISRVEAEDLGVYYCFQGSHVPLTFGAGTKLELK
notes: Mouse hybridoma monoclonal
As to B1, the binding result (in the experiment with hLRIG1 Peptide 70; with hLRIG1 Peptide 71; in experiment [1]) was “binds” throughout.

B2: 802.5G6.2B11 (antibody, V domains shown)
VH: EVQLQQSGAELVRPGASVKLSCTASGFNIKDDYLHWVKQRPEQGLEWIGWIDPEKGDTECASKFQGKATITVDTSSNTAYLQLSSLTSEDTAVYFCTTGSTVWGQGTTLTVSS
VL: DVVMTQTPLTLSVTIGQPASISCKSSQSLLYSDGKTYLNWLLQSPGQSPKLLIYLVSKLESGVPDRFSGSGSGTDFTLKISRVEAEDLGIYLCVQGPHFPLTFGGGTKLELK
notes: Mouse hybridoma monoclonal
For B2, the binding result (with hLRIG1 Peptide 69; in experiment [1]) was “binds” throughout.

(Values after patent US20220281973A1 (TRUEBINDING, published 2022).)
